Numbering of substitutions follows the chain as printed. Starred links: 1 amine or outer side, 2 acyl side, 3 side chain; linkers in the order of their positions; H or OH if unused. Non-standard residues stand in square brackets, D forms with d. Groups on a side chain read outwards from the residue. No end group written: not given here. *: point of attachment. C20 diacid = O=C(O)CCCCCCCCCCCCCCCCCCC(=O)*; C18 diacid = O=C(O)CCCCCCCCCCCCCCCCC(=O)*; γGlu = O=C(O)[C@H](CCC(=O)[*:2])N[*:1]; εLys = N[C@@H](CCCCN[*:1])C(=O)[*:2]; AEEA = NCCOCCOCC(=O)O; Aib = CC(C)(N)C(=O)O
T1: GIP receptor (human (printed as hGIPR), UniProt P48546 22-466)
T1 sequence (looked up): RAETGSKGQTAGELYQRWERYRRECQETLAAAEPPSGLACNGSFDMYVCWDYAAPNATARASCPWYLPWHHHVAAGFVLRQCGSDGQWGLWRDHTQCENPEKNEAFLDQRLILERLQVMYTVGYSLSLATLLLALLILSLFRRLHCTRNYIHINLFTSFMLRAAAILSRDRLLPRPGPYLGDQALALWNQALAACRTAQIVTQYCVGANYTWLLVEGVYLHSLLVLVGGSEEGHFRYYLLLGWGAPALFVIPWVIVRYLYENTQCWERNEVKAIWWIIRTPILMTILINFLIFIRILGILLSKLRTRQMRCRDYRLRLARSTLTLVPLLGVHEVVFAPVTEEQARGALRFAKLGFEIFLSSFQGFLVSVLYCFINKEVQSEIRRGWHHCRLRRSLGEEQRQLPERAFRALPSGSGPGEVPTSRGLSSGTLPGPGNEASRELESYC

T2: NPY2 receptor (human (printed as hNPY2R), UniProt P49146 1-381)
T2 sequence (looked up): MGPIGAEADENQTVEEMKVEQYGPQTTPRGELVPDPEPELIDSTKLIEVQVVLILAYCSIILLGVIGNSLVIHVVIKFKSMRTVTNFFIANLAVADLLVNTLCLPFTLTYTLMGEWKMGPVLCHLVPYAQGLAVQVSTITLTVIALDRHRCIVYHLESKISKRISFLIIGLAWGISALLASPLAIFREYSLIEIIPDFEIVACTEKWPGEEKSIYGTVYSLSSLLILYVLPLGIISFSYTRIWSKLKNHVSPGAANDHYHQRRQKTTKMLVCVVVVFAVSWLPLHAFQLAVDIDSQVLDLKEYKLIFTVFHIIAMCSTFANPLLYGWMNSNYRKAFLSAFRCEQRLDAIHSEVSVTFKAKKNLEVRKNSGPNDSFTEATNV

B1: Compound 237 (peptide)
peptide: YXEGTFTSDYSIXLEKQAQXAFVEWLIKGGPSEGESLRHYYNWLTRQRY
modifications: Aib at 2, 13, 20; K28 side chain carries C20DA-gGlu-gGlu-gGlu-gGlu-gGlu-gGlu-eLys; C-terminal amide
B2: Compound 249 (peptide)
peptide: B1 peptide with E24Q, E35A
modifications: Aib at 2, 13, 20; K28 side chain carries C18DA-E-E-E-E-E-E-eLys (SEQ ID NO: 643); C-terminal amide
B3: Compound 236 (peptide)
peptide: B1 peptide with E35A
modifications: Aib at 2, 13, 20; NMeR (N-methyl-L-arginine) at 48; K28 side chain carries C20DA-gGlu-gGlu-gGlu-gGlu-gGlu-gGlu-eLys; C-terminal amide
B4: Compound 238 (peptide)
peptide: B1 peptide with E33S, E35A
modifications: Aib at 2, 13, 20; K28 side chain carries C20DA-gGlu-gGlu-gGlu-gGlu-gGlu; C-terminal amide
B5: Compound 250 (peptide)
peptide: B1 peptide with E24Q, E35A
modifications: Aib at 2, 13, 20; K28 side chain carries C18DA-gGlu-gGlu-gGlu-gGlu-gGlu; C-terminal amide
B6: Compound 234 (peptide)
peptide: B1 peptide with Y10L, E35A
modifications: Aib at 2, 13, 20; K28 side chain carries C20DA-gGlu-gGlu-gGlu-gGlu-Glu-gGlu-eLys (so in the source); C-terminal amide
B7: Compound 240 (peptide)
peptide: Y[Aib]EGTFTSDYSI[Aib]LEKQAQ[Aib]AFVQWLIK([εLys-Glu-Glu-Glu-Glu-Glu-C20 diacid])GGPSEGASLRHYYNWLTRQRY-NH2
modifications: also: TFA salt
B8: Compound 248 (peptide)
peptide: Y[Aib]EGTFTSDYSI[Aib]LEKQAQ[Aib]AFVEWLIK([AEEA-AEEA-γGlu-γGlu-γGlu-C18 diacid])GGPEEGASLRHYYNWLTRQRY-NH2
modifications: also: TFA salt
B9: Compound 247 (peptide)
peptide: Y[Aib]EGTFTSDYSI[Aib]LEKQAQ[Aib]AFIEWLIK([γGlu-γGlu-γGlu-γGlu-C18 diacid])GGPSEGASLRHYYNWLTRQRY-NH2
modifications: also: TFA salt
B10: Compound 231 (peptide)
peptide: Y[Aib]EGTFTSDYSI[Aib]LEKQAQ[Aib]AFIEWLIK([AEEA-AEEA-γGlu-γGlu-γGlu-γGlu-C20 diacid])GGPSEGASLRHYYNWLTRQRY-NH2
modifications: also: TFA salt
B11: Compound 243 (peptide)
peptide: Y[Aib]EGTFTSDYSI[Aib]LEKQAQ[Aib]AFVQWLIKGGPSEGASLRHYYNWLTRQRY-NH2
modifications: not fully specified (residue 28); also: TFA salt

What follows are binders tested against GLP-1 receptor (human (printed as hGLP1R), UniProt P43220 24-463) (assay: cell-based or functional assay).

Binder	EC50 hGLP1R 0.5% hP (CreLuc)	EC50 hGLP1R 100% hP (CreLuc)
B1	0.26 nM	3.11 nM
B2	0.13 nM	1.78 nM
B3	0.26 nM	3.42 nM
B4	0.1 nM	2.55 nM
B5	0.08 nM	2.03 nM
B6	0.35 nM	2.66 nM
B7	0.14 nM	6.74 nM
B8	0.25 nM	8 nM
B9	0.11 nM	2.2 nM
B10	0.14 nM	3.28 nM
B11	0.12 nM	5.96 nM

Each binder was assayed against T1, GIP receptor (assay: cell-based or functional assay).

Binder	EC50 hGIPR 0.5% hP (CreLuc)	EC50 hGIPR 100% hP (CreLuc)
B1	0.1 nM	1.17 nM
B2	0.19 nM	1.25 nM
B3	0.3 nM	1.41 nM
B4	0.52 nM	1.59 nM
B5	0.2 nM	1.25 nM
B6	0.74 nM	3.27 nM
B7	0.33 nM	1.97 nM
B8	0.12 nM	0.79 nM
B9	0.26 nM	1.57 nM
B10	0.33 nM	1.43 nM
B11	0.54 nM	2.97 nM

Each binder was assayed against T2, NPY2 receptor (assay: cell-based or functional assay).

Binder	EC50 hNPY2R 0.5% hP (CreLuc)	EC50 hNPY2R 100% hP (CreLuc)
B1	18 nM	45.5 nM
B2	17.8 nM	50 nM
B3	31 nM	86.6 nM
B4	11.6 nM	49.4 nM
B5	12.2 nM	37.4 nM
B6	25.1 nM	48.1 nM
B7	10.7 nM	77.5 nM
B8	18.7 nM	48.4 nM
B9	11.9 nM	64.7 nM
B10	19.2 nM	53 nM
B11	9.16 nM	50.6 nM

— patent US20240247080A1, “GLP1/GIP/NPY2 RECEPTOR TRIPLE AGONISTS” (Boehringer Ingelheim International GmbH, priority 2022, published 2024)
